Source: patent US20210373004A1

Columns and labels:
[1] = molecular target: Flag-mCherry-ColKhan-Cys-6His (Photorhabdus khanii); assay: EIA 8 plex n° 1: colicin coated at 100 nM, Im-RLuc8 alone at 100 nM, luciferase signal
[2] = molecular target: Flag-mCherry-ColErw-Cys-6His (Pectobacterium carotovorum); assay: EIA 8 plex n° 2: colicin coated at 100 nM, Im-RLuc8 alone at 100 nM, luciferase signal
[3] = molecular target: Flag-mCherry-ColKhan-Cys-6His (Photorhabdus khanii); assay: as above

Measured: RLU

B1: Myc-RLuc8-Im9-6His (protein)
chain: MGGEQKLISEEDLGGSASKVYDPEQRKRMITGPQWWARCKQMNVLDSFINYYDSEKHAENAVIFLHGNATSSYLWRHVVPHIEPVARCIIPDLIGMGKSGKSGNGSYRLLDHYKYLTAWFELLNLPKKIIFVGHDWGAALAFHYAYEHQDRIKAIVHMESVVDVIESWDEWPDIEEDIALIKSEEGEKMVLENNFFVETVLPSKIMRKLEPEEFAAYLEPFKEKGEVRRPTLSWPREIPLVKGGKPDVVQIVRNYNAYLRASDDLPKLFIESDPGFFSNAIVEGAKKFPNTEFVKVKGLHFLQEDAPDEMGKYIKSFVERVLKNEQKLELKHSISDYTEAEFLQLVTTICNADTSSEEELVKLVTHFEEMTEHPSGSDLIYYPKEGDDDSPSGIVNTVKQWRAANGKLEGGGSHHHHHH
> 100000 RLU: all assays above
